# Results as given in patent US9913914B2, “Cell transport” (priority 2013, dated 2018).
# B1: Cupid B-PTEN peptide: SEQ ID NO: 12; His-tagged Cupid B fused to 167 amino acid C2 region (186-352) of human PTEN (protein, listed as Homo sapiens)
# chain: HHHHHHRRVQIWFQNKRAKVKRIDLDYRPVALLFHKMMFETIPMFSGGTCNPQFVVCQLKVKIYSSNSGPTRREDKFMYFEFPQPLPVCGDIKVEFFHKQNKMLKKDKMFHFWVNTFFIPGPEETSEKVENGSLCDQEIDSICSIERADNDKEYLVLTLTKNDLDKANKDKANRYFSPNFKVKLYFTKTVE
# modifications: His tag
# notes: His-tagged Cupid B fused to 167 amino acid C2 region (186-352) of human PTEN
# Legend:
# Type in all cases: cell-based, Dictyostelium discoideum
# [1] = test system: Dictyostelium cells (PTEN-null phenotype); experiment: Streaming/aggregation of starved wild-type Dictyostelium cultures compared with PTEN-null mutant; settings: 10 micromolar dose
# Protocol: FIG. 8. Cupid can transport large molecule cargo into the cell. Starved Dictyostelium cultures were plated into petri dishes in starvation buffer and visualised after 10 hours. In untreated wild-type (WT) cultures (A), cells stream together into aggregation centres, co-ordinated by cell to cell signaling.
# In Dictyostelium, a genetic mutant in which the PTEN gene is absent causes marked changes in phenotype.
# PTEN [2] = experiment: Inositol phospholipid levels in starving Dictyostelium cells (solvent extraction, thin layer chromatography); settings: 10 micromolar, 1 hour
# Protocol: FIG. 9. The levels of the 4 inositol phospholipids (PI, PIP, PIP2 and PIP3) in wild-type Dictyostelium cells undergoing starvation were measured by solvent extraction of cell cultures and analysis using thin layer chromatography. The effect of Cupid B-PTEN peptide treatment (10 micromolar, 1 hour) was calculated as a percentage change in the basal (untreated) levels.
# The PTEN protein has a phospholipase enzymatic activity that functions to remove phosphate groups from inositol-based lipids and as such is involved with maintaining the balance between varieties of inositol phospholipids present at the cell surface. In wild-type cells undergoing starvation the inositol phospholipids with 3 and 4 phosphate groups (PIP2 and PIP3) are kept low, largely due to the action of PTEN.
# We determined the effect of Cupid B-PTEN peptide on the inositol phospholipid levels in Dictyostelium cultures. Cupid B-PTEN peptide treated cells (10 micromolar, 1 hour) alters the basal levels of inositol phospholipids in Dictyostelium cells.
# PTEN [3] = experiment: Protein phosphorylation response to cyclic AMP in starving Dictyostelium cultures (antibody detection on SDS gels); settings: pretreated 1 hour, 10 micromolar
# From the text: FIG. 10. In starving Dictyostelium cultures, several proteins undergo rapid phosphorylation/dephosphorylation events in response to an applied dose of cyclic AMP. The strength of this response is limited by PTEN enzyme activity. This response is visualised with antibody detection of these phosphoproteins on SDS gels prepared from extracted cultures at the time points indicated after the cAMP dose.
# In starving Dictyostelium cultures, several proteins undergo rapid phosphorylation/dephosphorylation events in response to an applied dose of cyclic AMP. The strength of this initial phosphorylation response is limited by PTEN enzyme activity and is associated with changes in PIP2 and PIP3 inositol phospholipid levels.
molecule,measurement,setting,value
B1,aggregation behaviour of wild-type cells during starvation,[1],exhibit the same distinctive behaviour as the PTEN-Null strain
same,level of PIP2 relative to untreated basal levels,PTEN [2],+75%
same,level of PIP3 relative to untreated basal levels,PTEN [2],+150%
same,initial phosphorylation response to cyclic AMP versus untreated cultures,PTEN [3],much stronger initial phosphorylation response
